Measurements from paper PMC4470041.

Molecular target: CCR5 expressed in HEK 293T cells (HEK-CCR5 cells) (UniProt P51681)
Test: radioligand binding

Chain of UniProt P51681 (P51681 whole entry): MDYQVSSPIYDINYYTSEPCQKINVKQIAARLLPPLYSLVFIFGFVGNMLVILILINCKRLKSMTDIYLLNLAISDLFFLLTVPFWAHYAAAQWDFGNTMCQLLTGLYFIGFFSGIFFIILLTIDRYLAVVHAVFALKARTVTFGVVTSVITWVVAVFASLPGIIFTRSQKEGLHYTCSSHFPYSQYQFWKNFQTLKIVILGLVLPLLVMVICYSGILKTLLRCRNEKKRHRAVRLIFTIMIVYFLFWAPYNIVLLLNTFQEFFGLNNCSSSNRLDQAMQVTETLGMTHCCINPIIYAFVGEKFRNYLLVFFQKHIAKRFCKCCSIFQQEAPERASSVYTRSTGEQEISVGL

Work on “gp120 from the R5 HIV-1 primary strain Bx08 (natural protein)” yielded a Ki of 6.3 nM.
